Columns and labels:
MC38 WT tumors = assay: Tumor growth of MC38 WT colon adenocarcinoma tumors in C57BL/6 mice; format: in vivo; conditions: for tumor growth versus anti-PD-1 monotherapy: MC38 WT tumors, PAK4 inhibitor twice daily from days 4 to 7, P<0.05 days 7, 10 (day 14 only combination)
Method: All mouse studies were performed under UCLA Animal Research Committee protocol #2004-159-23. C57BL/6 mice were bred and kept under defined-flora pathogen-free conditions at the Association for Assessment and Accreditation of Laboratory Animal Care approved animal facility of the Division of Experimental Radiation Oncology, UCLA. To study the in vivo effect of PD-1 blockade in anti-tumor response and immune cell infiltration, we subcutaneously (s.c.) injected 0.3×10^6 B16 PAK4 KO melanoma cells or MC38 PAK4 KO cells into the flanks of C57BL/6 syngeneic mice. 96 hours after tumor injection mice were randomly assigned into the different groups. Anti PD-1 (Cat. No. BE0146, clone RMP1-14, BioXCell, West Lebanon, N.H.) treatment was injected intraperitoneally three times per week at 200 μg per dose. For CD8 depletion studies, we administered anti-CD8 (Cat. No. BE0117, clone YST 169.4, BioXCell) one day before anti-PD1 treatment and then it was co-administered with anti-PD1 for a total of four doses. Splenocytes from control and CD8 depleted mice were taken to validate CD8 depletion efficacy (FIGS. 14-15). To study the combination effects of PAK4 inhibition (KPT-9274) and anti-PD-1 (Cat. No. BE0146, clone RMP1-14, BioXCell) in immune cell infiltration and anti-tumor response, 0.5×10^6 B16 WT or MC38 WT cells were injected s.c. into the flanks of C57BL/6 mice. 96 hours after tumor injection mice were randomly assigned into the different groups. PAK4 inhibitor was administered twice a day by oral gavage at 150 mg/kg while anti-PD-1 treatment was administered as described above. Tumor progression was monitored three times per week by measuring two perpendicular dimensions with a calliper.

[1] = system: Wnt/β-catenin-mediated transcription in B16 WT CRISPR control cells; assay: Topflash/Fopflash WNT activity luciferase assay, B16 WT CRISPR control cells; format: cell-based, murine; conditions: Wnt-3a 200 ng/mL, 8 hours
Method: (§1) For Topflash WNT activity assay cells were plated in 24 well plates and were co-transfected with pSV-β-galactosidase control vector (PR-E1081, Promega, Madison, Wis.) along with either pTopflash (Addgene, Cat. No. 12456) or pFopflash (Addgene, Cat. No. 12457). 24 hours after transfection, cells were treated with Wnt-3a (R&D Systems, Minneapolins, Minn.) at 200 ng/mL. After 8 hours, cells were harvested using Reporter Lysis Buffer (Promega, Cat. No. PR-E4030) and luciferase activity was measured using Bright-Glo Luciferase Assay System (Promega, Cat. No. PR-E2610) and Beta-Glo Assay System (Promega, Cat. No. PR-E4720). Luciferase activity was normalized to its corresponding Beta-Glo activity to account for transfection efficiency.

[2] = system: Wnt/β-catenin-mediated transcription in PAK4 KO cells; assay: Topflash/Fopflash WNT activity luciferase assay, B16 PAK4 KO cells; format: cell-based, murine; conditions: Wnt-3a 200 ng/mL, 8 hours
Method: as §1

Row | Molecule | tumor growth versus anti-PD-1 monotherapy (MC38 WT tumors; listed as PAK4i) | tumor growth versus anti-PD-1 monotherapy (MC38 WT tumors; listed as PAK4 inhibitor) | PAK4 inhibitor associated toxicity (MC38 WT tumors; mice bearing MC38 WT tumors, PAK4 inhibitor 150 mg/kg twice daily oral gavage, days 4 to 7) | Topflash luciferase activity ([1]; B16 WT CRISPR control cells) | Fopflash luciferase activity (mutant TCF-binding sites) ([1]; B16 WT cells) | induction of Topflash luciferase activity ([2]; PAK4 KO cells versus B16 WT control) | Fopflash luciferase activity (mutant TCF-binding sites) ([2]; PAK4 KO cells)
1 | Nc1ccc(/C=C/C(=O)NCc2cc3cc(-c4ccc(C(=O)N5CCC(F)(F)CC5)cc4)cc(-c4ccc(F)cc4)c3o2)cn1 [KPT-9274] | significant decreased tumor growth compared to anti-PD-1 alone | decreased tumor growth compared to the anti-PD-1 monotherapy group | discontinued due to PAK4i associated toxicity |  |  |  | 
2 | Wnt-3a: Wnt-3a (R&D Systems), used at 200 ng/mL (protein, UniProt P56704 19-352, looked up) Protein Wnt-3a: SYPIWWSLAVGPQYSSLGSQPILCASIPGLVPKQLRFCRNYVEIMPSVAEGIKIGIQECQHQFRGRRWNCTTVHDSLAIFGPVLDKATRESAFVHAIASAGVAFAVTRSCAEGTAAICGCSSRHQGSPGKGWKWGGCSEDIEFGGMVSREFADARENRPDARSAMNRHNNEAGRQAIASHMHLKCKCHGLSGSCEVKTCWWSQPDFRAIGDFLKDKYDSASEMVVEKHRESRGWVETLRPRYTYFKVPTERDLVYYEASPNFCEPNPETGSFGTRDRTCNVSSHGIDGCDLLCCGRGHNARAERRREKCRCVFHWCCYVSCQECTRVYDVHTCK |  |  |  | significantly induced | did not induce | significantly reduced | did not induce

— patent US20210161943A1, “PAK4 INHIBITORS AND METHODS OF USE” (THE REGENTS OF THE UNIVERSITY OF CALIFORNIA, priority 2018, published 2021)
